Experimental data taken from the supplement of paper PMC10065799, “High-throughput profiling of sequence recognition by tyrosine kinases and SH2 domains using bacterial peptide display” (eLife, 2023).

Legend:
Grb2 SH2 = Grb2 SH2 (UniProt P62993); assay: SH2 binding enrichment of the phosphorylated peptide, bacterial display (enrichment ratio); higher = better substrate or ligand; peptides without Tyr show the background
SHP2-C SH2 = assay: as above
c-Src SH2 = assay: as above
Jak2 = Jak2 (UniProt O60674); assay: phosphorylation enrichment, bacterial display (enrichment ratio); higher = better substrate or ligand; peptides without Tyr show the background
Hck = Hck (UniProt P08631); assay: as above
Fer (mouse) = assay: as above
MERTK = MERTK (UniProt Q12866); assay: as above
FGFR3 = FGFR3 (UniProt P22607); assay: as above
c-Src = assay: as above
FGFR1 = FGFR1 (UniProt P11362); assay: as above
AncSZ = assay: as above
EPHB2 = EPHB2 (UniProt P29323); assay: as above
EPHB1 = EPHB1 (UniProt P54762); assay: as above
Fes = Fes (UniProt P07332); assay: as above
c-Abl (mouse) = assay: as above
Fyn = Fyn (UniProt P06241); assay: as above
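For SH2 binding enrichment of the phosphorylated peptide, bacterial display in this document: peptide library displayed on the E. coli surface as eCPX fusions, selected cells deep-sequenced, score is each peptide's frequency after selection divided by its frequency in the input.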
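For phosphorylation enrichment, bacterial display in this document: 11-residue human phosphosite peptides and single-mutation variants displayed on the E. coli surface, counted by deep sequencing, each peptide's frequency after selection divided by its frequency in the unselected input library; frequency after pTyr selection over input frequency; kinase dosed for 20-30% of maximal phosphorylation in three min.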

Sequence of FGFR1 (P11362 whole entry, looked up): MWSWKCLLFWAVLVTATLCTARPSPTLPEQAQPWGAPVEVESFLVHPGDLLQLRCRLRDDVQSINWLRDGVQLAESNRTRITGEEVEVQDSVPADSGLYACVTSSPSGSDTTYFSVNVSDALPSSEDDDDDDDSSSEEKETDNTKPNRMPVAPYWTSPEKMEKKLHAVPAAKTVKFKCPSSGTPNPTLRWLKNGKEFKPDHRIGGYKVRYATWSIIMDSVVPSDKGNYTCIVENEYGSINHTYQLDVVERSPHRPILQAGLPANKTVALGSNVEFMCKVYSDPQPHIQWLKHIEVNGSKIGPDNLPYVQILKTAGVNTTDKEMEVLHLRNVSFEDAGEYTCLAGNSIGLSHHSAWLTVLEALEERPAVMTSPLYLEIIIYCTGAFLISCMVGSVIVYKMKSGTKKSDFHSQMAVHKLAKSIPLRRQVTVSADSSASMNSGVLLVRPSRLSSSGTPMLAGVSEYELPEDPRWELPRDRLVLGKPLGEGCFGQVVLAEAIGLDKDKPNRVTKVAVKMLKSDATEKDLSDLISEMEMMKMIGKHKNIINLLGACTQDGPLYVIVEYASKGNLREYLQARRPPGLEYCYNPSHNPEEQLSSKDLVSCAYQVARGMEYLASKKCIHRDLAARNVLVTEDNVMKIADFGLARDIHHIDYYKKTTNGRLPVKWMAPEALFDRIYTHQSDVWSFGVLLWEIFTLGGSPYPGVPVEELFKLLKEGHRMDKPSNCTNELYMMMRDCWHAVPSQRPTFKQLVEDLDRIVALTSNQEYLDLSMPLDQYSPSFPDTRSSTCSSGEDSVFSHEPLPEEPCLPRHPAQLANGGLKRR
Sequence of MERTK (Q12866 whole entry, looked up): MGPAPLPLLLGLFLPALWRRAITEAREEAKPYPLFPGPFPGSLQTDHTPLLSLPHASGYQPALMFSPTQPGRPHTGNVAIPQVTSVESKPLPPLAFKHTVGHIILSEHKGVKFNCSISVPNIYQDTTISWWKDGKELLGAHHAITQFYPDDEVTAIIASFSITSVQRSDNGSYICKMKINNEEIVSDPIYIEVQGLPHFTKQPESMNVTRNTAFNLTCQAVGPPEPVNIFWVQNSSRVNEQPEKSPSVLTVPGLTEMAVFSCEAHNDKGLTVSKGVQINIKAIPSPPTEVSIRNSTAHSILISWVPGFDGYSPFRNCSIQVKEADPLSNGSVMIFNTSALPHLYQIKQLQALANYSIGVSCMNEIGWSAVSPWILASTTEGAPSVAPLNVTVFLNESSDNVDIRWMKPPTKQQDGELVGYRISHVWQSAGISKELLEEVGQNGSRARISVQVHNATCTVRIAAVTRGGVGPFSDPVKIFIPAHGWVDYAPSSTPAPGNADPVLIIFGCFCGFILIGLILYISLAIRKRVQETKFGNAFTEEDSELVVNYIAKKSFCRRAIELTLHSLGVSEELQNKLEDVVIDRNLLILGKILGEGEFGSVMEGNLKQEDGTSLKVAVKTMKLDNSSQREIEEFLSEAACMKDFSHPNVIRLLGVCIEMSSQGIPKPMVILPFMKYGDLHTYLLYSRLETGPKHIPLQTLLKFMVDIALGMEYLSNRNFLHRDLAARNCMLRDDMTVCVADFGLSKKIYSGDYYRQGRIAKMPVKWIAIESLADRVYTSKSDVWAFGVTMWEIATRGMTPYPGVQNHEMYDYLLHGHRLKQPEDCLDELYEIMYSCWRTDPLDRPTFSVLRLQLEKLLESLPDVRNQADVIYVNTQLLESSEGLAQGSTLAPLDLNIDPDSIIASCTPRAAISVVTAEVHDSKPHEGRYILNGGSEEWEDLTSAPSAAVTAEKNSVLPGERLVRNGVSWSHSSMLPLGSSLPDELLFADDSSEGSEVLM
Sequence of Jak2 (O60674 whole entry, looked up): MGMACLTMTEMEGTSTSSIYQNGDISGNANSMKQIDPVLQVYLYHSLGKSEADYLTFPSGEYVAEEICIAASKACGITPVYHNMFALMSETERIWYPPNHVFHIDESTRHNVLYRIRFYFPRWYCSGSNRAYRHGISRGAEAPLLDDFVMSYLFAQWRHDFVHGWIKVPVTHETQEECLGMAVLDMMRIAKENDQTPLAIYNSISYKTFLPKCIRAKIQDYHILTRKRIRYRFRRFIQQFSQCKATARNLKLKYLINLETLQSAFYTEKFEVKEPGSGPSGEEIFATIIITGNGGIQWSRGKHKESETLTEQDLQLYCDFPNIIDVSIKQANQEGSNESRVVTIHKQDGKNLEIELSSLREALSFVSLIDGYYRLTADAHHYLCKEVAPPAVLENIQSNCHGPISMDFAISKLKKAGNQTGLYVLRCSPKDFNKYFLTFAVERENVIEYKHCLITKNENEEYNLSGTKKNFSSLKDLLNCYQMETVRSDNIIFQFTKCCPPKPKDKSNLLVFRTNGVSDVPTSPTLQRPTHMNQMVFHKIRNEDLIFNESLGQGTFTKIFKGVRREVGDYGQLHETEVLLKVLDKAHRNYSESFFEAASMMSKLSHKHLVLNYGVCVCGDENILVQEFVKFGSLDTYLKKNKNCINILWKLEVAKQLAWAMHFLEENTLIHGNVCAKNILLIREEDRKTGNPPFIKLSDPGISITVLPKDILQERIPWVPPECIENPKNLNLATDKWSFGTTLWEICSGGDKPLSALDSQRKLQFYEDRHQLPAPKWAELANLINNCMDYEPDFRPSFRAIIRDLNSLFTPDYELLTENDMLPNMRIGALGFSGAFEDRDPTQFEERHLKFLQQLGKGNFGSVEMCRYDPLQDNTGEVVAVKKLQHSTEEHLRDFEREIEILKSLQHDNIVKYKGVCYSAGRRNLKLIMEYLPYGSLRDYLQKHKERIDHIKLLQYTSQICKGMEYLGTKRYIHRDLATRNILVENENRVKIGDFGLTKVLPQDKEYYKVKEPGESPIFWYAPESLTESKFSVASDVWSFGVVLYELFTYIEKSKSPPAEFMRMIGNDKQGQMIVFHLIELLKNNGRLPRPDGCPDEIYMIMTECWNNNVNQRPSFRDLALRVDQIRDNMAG
Sequence of FGFR3 (P22607 whole entry, looked up): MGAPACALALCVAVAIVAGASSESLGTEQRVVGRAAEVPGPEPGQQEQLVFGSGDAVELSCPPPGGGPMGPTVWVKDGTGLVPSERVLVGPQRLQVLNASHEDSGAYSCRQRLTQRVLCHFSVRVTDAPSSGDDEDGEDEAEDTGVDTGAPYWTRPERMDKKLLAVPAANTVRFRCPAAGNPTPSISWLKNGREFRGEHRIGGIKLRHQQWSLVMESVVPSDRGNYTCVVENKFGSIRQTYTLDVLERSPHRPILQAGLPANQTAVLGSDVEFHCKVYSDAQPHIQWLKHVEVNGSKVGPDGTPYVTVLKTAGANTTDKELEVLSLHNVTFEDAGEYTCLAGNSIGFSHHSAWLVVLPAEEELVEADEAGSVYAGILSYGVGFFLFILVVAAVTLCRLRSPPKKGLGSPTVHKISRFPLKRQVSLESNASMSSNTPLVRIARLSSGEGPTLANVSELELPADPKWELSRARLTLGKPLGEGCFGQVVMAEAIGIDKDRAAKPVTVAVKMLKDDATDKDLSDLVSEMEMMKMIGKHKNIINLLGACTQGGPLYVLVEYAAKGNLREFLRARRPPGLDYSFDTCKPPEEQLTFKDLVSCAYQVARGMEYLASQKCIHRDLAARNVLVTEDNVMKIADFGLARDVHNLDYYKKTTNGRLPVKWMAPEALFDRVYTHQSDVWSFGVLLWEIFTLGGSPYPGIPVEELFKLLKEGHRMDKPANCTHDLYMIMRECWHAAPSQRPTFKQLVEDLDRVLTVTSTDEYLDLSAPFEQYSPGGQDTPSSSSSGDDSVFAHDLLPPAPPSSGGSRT
Sequence of Fes (P07332 whole entry, looked up): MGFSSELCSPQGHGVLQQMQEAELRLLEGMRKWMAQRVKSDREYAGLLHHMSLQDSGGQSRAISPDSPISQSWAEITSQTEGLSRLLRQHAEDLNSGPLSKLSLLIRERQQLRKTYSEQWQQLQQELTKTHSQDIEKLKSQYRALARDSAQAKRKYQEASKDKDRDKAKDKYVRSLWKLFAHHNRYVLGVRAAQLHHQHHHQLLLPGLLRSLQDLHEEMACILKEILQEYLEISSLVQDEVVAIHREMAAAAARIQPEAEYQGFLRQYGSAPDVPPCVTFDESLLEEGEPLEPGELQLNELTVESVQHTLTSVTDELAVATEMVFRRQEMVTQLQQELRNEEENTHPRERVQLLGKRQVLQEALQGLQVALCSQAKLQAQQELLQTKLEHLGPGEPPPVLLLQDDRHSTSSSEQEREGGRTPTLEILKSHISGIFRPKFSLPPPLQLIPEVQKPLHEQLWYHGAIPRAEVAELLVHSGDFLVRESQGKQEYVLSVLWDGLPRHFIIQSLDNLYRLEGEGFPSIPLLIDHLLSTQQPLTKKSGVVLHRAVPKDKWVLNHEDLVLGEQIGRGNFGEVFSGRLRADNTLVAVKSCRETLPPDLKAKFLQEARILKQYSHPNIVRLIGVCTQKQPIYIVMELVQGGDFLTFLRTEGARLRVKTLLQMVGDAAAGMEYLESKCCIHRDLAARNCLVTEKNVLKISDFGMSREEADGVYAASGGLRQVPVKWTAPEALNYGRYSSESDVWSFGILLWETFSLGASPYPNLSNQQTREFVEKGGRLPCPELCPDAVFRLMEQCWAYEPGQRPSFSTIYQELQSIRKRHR

Sequence | SH2 binding enrichment (Grb2 SH2) | SH2 binding enrichment (SHP2-C SH2) | SH2 binding enrichment (c-Src SH2) | phosphorylation enrichment (Jak2) | phosphorylation enrichment (Hck) | phosphorylation enrichment (Fer (mouse)) | phosphorylation enrichment (MERTK) | phosphorylation enrichment (FGFR3) | phosphorylation enrichment (c-Src) | phosphorylation enrichment (FGFR1) | phosphorylation enrichment (AncSZ) | phosphorylation enrichment (EPHB2) | phosphorylation enrichment (EPHB1) | phosphorylation enrichment (Fes) | phosphorylation enrichment (c-Abl (mouse)) | phosphorylation enrichment (Fyn)
NKYTTYLPWLP [C9orf24_Y126_R129W] | 1.14 | 1.01 | 0.739 | 2.34 | 8.09 | 9.65 | 3.37 | 2.25 | 4.72 | 2.77 | 1.08 | 12.8 | 6.9 | 0.944 | 1.94 | 6.75
IIRYNYLLDVL [FGFR4_Y237_S232I] | 1.34 | 1.66 | 2.69 | 1.03 | 0.557 | 0.507 | 0.52 | 0.723 | 0.49 | 0.599 | 0.943 | 0.651 | 0.522 | 2.41 | 0.976 | 0.476
LEVETYRRLLD [KRT12_Y429_I426V] | 0.843 | 0.64 | 0.467 | 0.749 | 0.511 | 0.439 | 0.344 | 0.625 | 0.349 | 0.396 | 0.676 | 0.407 | 0.491 | 0.797 | 0.551 | 0.421
EPAVLYNLKER [MYH7_Y103_D107E] | 0.773 | 0.653 | 0.486 | 0.74 | 0.72 | 0.332 | 0.388 | 0.524 | 0.694 | 0.506 | 0.804 | 0.547 | 0.354 | 0.854 | 0.687 | 0.511
YEKFLYFLPAS [DYNC2H1_Y346_H341Y] | 1.05 | 1.19 | 2.21 | 2.7 | 0.827 | 0.581 | 2.16 | 0.91 | 0.938 | 0.57 | 1.5 | 0.644 | 0.764 | 1.31 | 0.89 | 0.868
IKNSGYISQYL [EIF2AK3_Y585_R588Q] | 0.939 | 0.969 | 0.628 | 0.617 | 0.39 | 0.323 | 0.374 | 0.458 | 0.406 | 0.443 | 0.593 | 0.375 | 0.414 | 0.783 | 0.435 | 0.427
RDVEQYVNNVN [PCDH19_Y1097_L1094V] | 2.37 | 0.541 | 0.621 | 0.855 | 0.645 | 0.454 | 0.522 | 0.701 | 0.398 | 0.544 | 0.928 | 0.594 | 0.545 | 0.93 | 1.02 | 0.577
EDSEFYKAFEE [CASQ2_Y179_YF] | 0.767 | 0.671 | 0.506 | 1.07 | 0.543 | 0.4 | 0.454 | 0.739 | 0.567 | 0.482 | 1.2 | 0.659 | 0.534 | 1.21 | 0.693 | 0.442
FEELVYETVRV [FSHB_Y76_K72E] | 0.884 | 0.702 | 0.514 | 0.843 | 6.88 | 12.8 | 4.67 | 1.82 | 5.16 | 2.21 | 3.82 | 5.12 | 4.38 | 6.25 | 11.5 | 7.8
FLTSSYINIST [IL23R_Y178_YF] | 22.6 | 1.33 | 2.66 | 1.34 | 0.422 | 0.375 | 0.47 | 0.489 | 0.44 | 0.517 | 0.834 | 0.434 | 0.437 | 0.779 | 0.498 | 0.48
MEIHAYRKLSE [LMNA_Y376_L380S] | 0.718 | 0.641 | 0.432 | 0.678 | 0.466 | 0.39 | 0.342 | 0.495 | 0.384 | 0.371 | 0.729 | 0.459 | 0.379 | 0.788 | 0.641 | 0.356
HILRVYSGVLP [PCNX4_Y999_G1000S] | 1.1 | 1.26 | 1.44 | 0.867 | 1.15 | 0.612 | 0.576 | 1.12 | 0.745 | 0.671 | 0.968 | 0.651 | 0.841 | 1.22 | 0.872 | 1.1
NFADPYRQLQF [CTNND2_Y503_YF] | 0.878 | 1.04 | 0.555 | 0.667 | 0.539 | 0.436 | 0.454 | 0.557 | 0.563 | 0.516 | 0.765 | 0.502 | 0.494 | 0.826 | 0.654 | 0.473
HHIDFYKETTN [FGFR1_Y654_K656E_YF] | 1.08 | 0.933 | 0.761 | 0.938 | 1.64 | 0.889 | 0.556 | 1.14 | 0.541 | 1.02 | 1.07 | 2.44 | 1.5 | 2.36 | 0.575 | 1.27
APIEDYGGGGG [B4GALT6_Y382] | 0.702 | 0.627 | 0.501 | 0.794 | 0.509 | 0.505 | 0.461 | 0.697 | 0.449 | 0.523 | 0.872 | 0.599 | 0.649 | 0.965 | 0.661 | 0.566
GDYLSYREFHS [ERBIN_Y1107] | 0.972 | 0.539 | 0.407 | 1.54 | 2.42 | 0.414 | 0.489 | 3.56 | 2.48 | 4.66 | 2.1 | 23.1 | 16.8 | 0.903 | 19 | 2.8
TDGNGYISFNE [LCP1_Y28] | 0.922 | 1.98 | 36 | 0.824 | 0.458 | 0.489 | 0.412 | 0.752 | 0.603 | 0.546 | 0.923 | 0.485 | 0.476 | 1.13 | 0.624 | 0.454
SPPILYSFYLD [FCRL6_Y239] | 1.28 | 1.14 | 0.882 | 0.775 | 1.57 | 1.37 | 8.22 | 0.924 | 2.74 | 1.42 | 1.31 | 4.22 | 3.28 | 1.05 | 0.736 | 2.03
RPASQYPHQVP [ADAM12_Y895_P893S] | 0.883 | 0.791 | 0.53 | 0.56 | 0.553 | 0.464 | 0.419 | 0.403 | 0.459 | 0.476 | 0.533 | 0.689 | 0.205 | 0.548 | 0.374 | 0.61
VNYGAYINDFN [GLB1_Y488_K493N] | 9.16 | 1.05 | 6.95 | 0.748 | 0.533 | 0.462 | 0.469 | 0.616 | 0.675 | 0.451 | 1 | 1.09 | 0.737 | 1 | 0.703 | 0.87
TGSFTCEAVEL [MTMR14_Y462_Y462C] | 0.888 | 0.676 | 0.576 | 0.892 | 0.573 | 0.619 | 0.419 | 0.811 | 0.483 | 0.529 | 1.19 | 0.659 | 0.661 | 1.24 | 0.77 | 0.65
FVHDNYVIRRT [CPS1_Y1450] | 0.655 | 0.517 | 0.416 | 0.714 | 0.489 | 0.435 | 0.391 | 0.467 | 0.536 | 0.4 | 0.772 | 0.499 | 0.376 | 0.739 | 0.418 | 0.446

Continued, in another order:

SH2 binding enrichment (Grb2 SH2) | SH2 binding enrichment (SHP2-C SH2) | SH2 binding enrichment (c-Src SH2) | Sequence | phosphorylation enrichment (Jak2) | phosphorylation enrichment (Hck) | phosphorylation enrichment (Fer (mouse)) | phosphorylation enrichment (MERTK) | phosphorylation enrichment (FGFR3) | phosphorylation enrichment (c-Src) | phosphorylation enrichment (FGFR1) | phosphorylation enrichment (AncSZ) | phosphorylation enrichment (EPHB2) | phosphorylation enrichment (EPHB1) | phosphorylation enrichment (Fes) | phosphorylation enrichment (c-Abl (mouse)) | phosphorylation enrichment (Fyn)
1.01 | 0.686 | 0.542 | CCKNRYDKDKP [THAP1_Y14_G9C] | 0.429 | 0.384 | 0.345 | 0.486 | 0.419 | 0.345 | 0.465 | 0.455 | 0.28 | 0.29 | 0.5 | 0.381 | 0.33
0.574 | 0.822 | 0.57 | RRIHSYRSHLW [VHL_Y112_G114S] | 0.487 | 0.601 | 0.507 | 0.718 | 0.778 | 0.439 | 1.25 | 0.576 | 2.19 | 0.81 | 1.17 | 0.395 | 0.833
0.878 | 0.764 | 1.55 | VDTAMYATMQR [TPO_Y55] | 0.531 | 5.09 | 0.519 | 0.764 | 0.507 | 3.92 | 0.518 | 0.697 | 0.672 | 0.568 | 0.706 | 0.705 | 3.02
0.971 | 0.722 | 2.41 | NTYEKYLGEEY [TF_Y669] | 0.99 | 0.688 | 0.523 | 0.382 | 0.756 | 1.03 | 0.472 | 1.12 | 0.74 | 0.601 | 1.06 | 0.935 | 0.974
0.854 | 0.77 | 0.697 | SRVTQYERDFE [SNX1_Y463] | 0.635 | 0.476 | 0.419 | 0.379 | 0.611 | 0.396 | 0.501 | 0.837 | 0.486 | 0.428 | 0.954 | 0.844 | 0.46
0.635 | 0.543 | 0.61 | ETESPYQELQG [TYROBP_Y91] | 1.3 | 0.9 | 0.673 | 0.669 | 0.834 | 1.52 | 0.91 | 1.24 | 0.646 | 0.624 | 1.39 | 0.83 | 0.775
1 | 0.772 | 1.26 | PPGRSYSPCDY [TNS1_Y793_Y796C] | 1.02 | 0.586 | 0.602 | 0.638 | 0.799 | 0.581 | 0.73 | 1.19 | 0.83 | 0.512 | 1.16 | 0.832 | 0.922
0.635 | 0.445 | 0.458 | VPVPGYTKLPE [SPRR3_Y146] | 0.848 | 0.487 | 0.473 | 0.499 | 0.671 | 0.419 | 0.531 | 0.865 | 0.642 | 0.544 | 1.05 | 0.988 | 0.464
1.19 | 1.04 | 0.947 | KDHRDYKFQPR [SOX9_Y172_P170R_YF] | 0.51 | 0.421 | 0.388 | 0.583 | 0.471 | 0.423 | 0.462 | 0.543 | 0.346 | 0.426 | 0.586 | 0.683 | 0.49
1.23 | 1.16 | 0.695 | IMICAYLLHRG [PTEN_Y138_V133I] | 1.23 | 0.525 | 0.827 | 0.536 | 0.77 | 0.566 | 0.534 | 1.3 | 0.687 | 0.617 | 1.35 | 1.19 | 0.709
0.817 | 0.82 | 0.584 | VEFAKYGSLRG [RET_Y809_YF] | 0.541 | 0.488 | 0.4 | 0.397 | 0.469 | 0.437 | 0.417 | 0.629 | 0.458 | 0.403 | 0.664 | 0.622 | 0.528
